Assay results as given in publication PMC5670216, “In vitro selections of mammaglobin A and mammaglobin B aptamers for the recognition of circulating breast tumor cells”.

T1: Mammaglobin B (MGB2), recombinant (UniProt O75556 19-95)
T1 sequence: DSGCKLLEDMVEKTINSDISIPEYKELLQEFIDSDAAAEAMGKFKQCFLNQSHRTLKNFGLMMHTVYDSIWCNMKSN


Key:
[1] = target: T1, Mammaglobin B (MGB2), recombinant; test: EMSA; aptamer 600 nM, protein 0-220 nM; unit implied by nM axis; EMSA: 50 mM Tris-HCl, 10 mM reduced glutathione, pH 8.0, 1 h at 37 C, 8% native PAGE; transfected-cell flow cytometry: PBS, 5 mM MgCl2, 4 C, 30 min, formaldehyde-fixed cells; conditions: tags: GST (stated for the SELEX protein)
[2] = target: Mammaglobin A (MGB1), recombinant (UniProt Q13296 19-93); test: as above; conditions: tags: GST (stated for the SELEX protein)
Chain of Mammaglobin A (MGB1), recombinant (Q13296 19-93): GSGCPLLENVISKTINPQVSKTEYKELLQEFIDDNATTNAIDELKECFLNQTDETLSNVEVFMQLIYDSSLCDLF

Binder	Kd [1] [nM]	Kd [2] [nM]
MAMB1 (ssDNA) DNA: CATGCTTACCTATAGTGAACCCAACGTCGAACTGAATCCCGTGTCCTTTGAGAACTGACTCATAC	95 ± 7	–
MAMA2 (ssDNA) DNA: CATGCTTACCTATAGTGAACCCGGGACAGAACGTGCGCTTTGAGCTTTGAGAACTGACTCATAC	–	88 ± 6
